Laboratory results reported in patent publication US20220003772A1, “METHODS OF TREATING CANCER” (priority 2018, published 2022).

Key:
[1] = molecular target: T1, BCMA (Homo sapiens, UniProt Q02223); assay: Dose escalation / expansion clinical study of J6M0-MMAF: response by IMWG criteria; type: in vivo; details: expansion cohort of 35 subjects (Part2), dose 3.40 mg/kg; 21/35; 95% CI 42.1-76.1
T1 construct: BCMA membrane expression is present on a subset of normal late-stage B cells and is universally detected on normal and malignant plasma cells; endogenous in cells; host or cells: plasma/myeloma cells of the clinical study subjects (in vivo)
T1 sequence (Q02223 1-184): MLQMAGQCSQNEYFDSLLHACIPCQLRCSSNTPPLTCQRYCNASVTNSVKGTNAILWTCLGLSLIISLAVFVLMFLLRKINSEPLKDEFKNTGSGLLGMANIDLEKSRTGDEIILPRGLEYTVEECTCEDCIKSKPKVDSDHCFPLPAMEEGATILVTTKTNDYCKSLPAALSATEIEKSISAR

[2] = molecular target: T2, free sBCMA (Homo sapiens, UniProt Q02223); assay: Reduction of free sBCMA in serum after infusion (free sBCMA MSD immunoassay); type: in vivo; details: at higher dose levels
T2 construct: the extracellular portion of the BCMA receptor is cleaved from the membrane of the plasma cell surface; from tissue; host or cells: serum of clinical study subjects
T2 sequence (Q02223 1-54 limits assumed): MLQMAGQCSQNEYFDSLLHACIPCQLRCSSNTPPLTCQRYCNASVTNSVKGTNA
Experimental: In a dose escalation clinical study, 38 subjects were treated with J6M0-MMAF (Part1). The doses ranged from 0.03 mg/kg up to 4.60 mg/kg (0.03 mg/kg, 0.06 mg/kg, 0.12 mg/kg, 0.24 mg/kg, 0.48 mg/kg, 0.96 mg/kg, 1.92 mg/kg, 2.5 mg/kg, 3.4 mg/kg, and 4.6 mg/kg). An expansion cohort of 35 subjects followed at a dose of 3.40 mg/kg (Part2). […] Levels of circulating soluble BCMA (sBCMA) were followed during these studies. Soluble BCMA was measured in serum samples collected at pre- and post-infusion of J6M0-MMAF. Immunoassays (FIG. 1) were used to determine the levels of free sBCMA (FIG. 1a) and J6M0-MMAF-bound sBCMA (FIG. 1b).
Free sBCMA Assay Protocol (FIG. 1a) 1.1. Preparation of Anti-BCMA Antibody Coated Plates (3 μg/ml)
1. An appropriate volume (˜3 mL per plate) of capture coating antibody was prepared—anti-BCMA antibody (J6M0) at 3 μg/mL in DPBS.
2. […]
1. 1×MSD read buffer was prepared as follows:
5 mL of 4×MSD read buffer T (Meso Scale Discovery #R92TC-1) plus 15 mL of Milli-Q water.
3. […], of 1× read buffer was transferred into to each well of the assay plate.
4. The MSD assay plate was read immediately by using the MSD Sector Imager 6000 (Meso Scale Discovery).
The binding of J6M0-MMAF to sBCMA was measured by comparing the post-infusion levels of free sBCMA measured 60 minutes after the start of infusion to those found at pre-infusion. […]

Substance: J6M0-MMAF
- overall response rate (ORR) by IMWG criteria [1]: 60%
- binding of sBCMA by J6M0-MMAF in patients [2]: binds a large fraction of sBCMA
